Results as given in paper PMC2615620 (Nucleic Acids Research, 2008).

Molecular target: T1, Snu17 of the RES complex purified from yeast (S. cerevisiae (endogenous in the …, UniProt P40565 1-148))
T1 sequence (looked up): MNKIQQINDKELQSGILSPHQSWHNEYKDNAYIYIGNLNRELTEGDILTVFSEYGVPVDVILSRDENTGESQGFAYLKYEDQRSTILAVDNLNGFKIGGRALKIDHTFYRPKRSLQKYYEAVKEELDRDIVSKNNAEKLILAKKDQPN
Experiment: SEC

Binder | stoichiometry N
Bud13 of the RES complex purified from yeast (natural protein, UniProt P46947 1-266, looked up) MALHQYLSETYGPTKPKNKTKKKKKESKSDANSDKTSLIVKERLSTLQQEQEKSGVASFSKFDKQKSKNIWKNLETNELSHAITHPSASSITGNESKNDLKEIRAQEPLVTVADKSKTRKTIYRDAQGHKIQEDSKIDDSSFSRSKYEDEKAAEREQYLKNLNMGDVQKLGINVDAHDKKKNQTASSLTIEDPAITFTHDKERTVKTSLLGRKLYDKPAPENRFAIMPGSRWDGVHRSNGFEEKWFAKQNEINEKKVQSYTLQEDY | 1
Pml1 of the RES complex purified from yeast (natural protein, UniProt Q07930 1-204, looked up) MFHRRKRPYNTRNYGHDDKKFKSQYIDIMPDFSPSGLLELESNNKEGIALKHVEPQDAISPDNYMDMLGLEARDRTMYELVIYRKNDKDKGPWKRYDLNGRSCYLVGRELGHSLDTDLDDRTEIVVADIGIPEETSSKQHCVIQFRNVRGILKCYVMDLDSSNGTCLNNVVIPGARYIELRSGDVLTLSEFEEDNDYELIFMNV | 1
